In patent publication US8084213, “Selection” (Domantis Limited):

How the values were obtained:
[1] = molecular target: scFv(31IJ1)-(KEAAA)6-scArc-HA (Phage P22 / human scFv?); experiment: co-capture on protein A, protein L, fluorescein; with anti-HA 3F10; conditions: tags: N-terminal scFv fusion, C-terminal HA; chain copies: 2 scArc per operator (inferred)
Procedure: In the solution expression experiments 3 µl of 1.7 nM PCR-amplified pIE7aA, pIE7a2A, pIE7a3A, pIE7a4A, pIE7aA-scFv(31IJ1), pIE7a2A-scFv(31 Ul), pIE7a3A-scFv (31IJ1) or pIE7a4A-scFv(31IJ1) template in 0.2 mg/ml tRNA is added to 25 µl EcoPro T7 in vitro translation mix (Novagen), supplemented with 0.75 µl of 100 mM oxidized glutathione (Sigma) and 0.25 µl […] 3F10 αHA mAb (Roche). Each reactions is split into three 9 µl aliquots. Two of the three in vitro translation aliquots of pIE7aA-scFv(31IJ1), pIE7a2A-scFv(31IJ1), pIE7a3A-scFv(31IJ1) or pIE-7a4A-scFv(31IJ1) are immediately combined with the aliquots of pIE7aA, pIE7a2A, pIE7a3A or pIE7a4A expression reactions respectively, one before and the other after the four-hour incubation at 25° C.
During the translation reaction the streptavidin-coated PCR tubes, cut from Strep Thermofast 96-well plates (Abgene), are first incubated at room temperature for three hours with 50 µl of at least 40 nM biotinylated protein A (Sigma), protein L (Pierce) fluorescein (Molecular Probes) of BSA (Sigma) in PBS. The coating buffer is thereafter removed and any remaining free biotin-binding sites are blocked with a 15 min pulse of 50 µg/ml biotinylated BSA in PBS. The pre-coated wells are thereafter three times washed with PBS and then filled with 100 µl of binding buffer C+ (100 mM KCl, 20 mM Tris, 5 mM MgCl2, 0.05% Tween 20, 0.05 mM EDTA, 1% BSA). […]

[2] = molecular target: scArc-Vk(E5)-HA (Phage P22 / human Vk); experiment: co-capture PCR; conditions: tags: C-terminal Vk(E5) dAb fusion, chain copies: 2 scArc per operator (stated)
Procedure: Tubes from Strep Thermofast 96-well plates are coated by applying 2 µl of 0.05 mg/ml biotinylated rat anti-HA mAb (clone 3F10, Roche), 0.2 µl of 0.5 mg/ml biotinylated protein L (Pierce), 1 µl of biotinylated 1 mg/ml β-galactosidase or 0.1 µl of 5 mg/ml biotinylated BSA (Sigma) respectively in 50 µl aliquots of PBS and incubating for 3 hours at room temperature. The monoclonal high-affinity α-HA mAb 3F10 recognises the C-terminal HA tag, β-galactosidase and protein L can be expected to interact with the $V_\kappa$(E5) light chain domain, while BSA serves as the negative control. At the end of the incubation the coating solution is removed and the first blocking solution consisting of 150 µl of 10 ng/ml biotinylated BSA (Sigma) in PBS is added to the wells and incubated for 15 minutes. At the end of the incubation the wells are washed three times with 150 µl of PBS and blocked additionally for 30 min at room temperature with buffer C+.
25 µl S30 in vitro translation reactions (EcoPro T7, Novagen) are assembled according to the manufacturer's instructions and supplemented with 1.5 µl of 1.7 mM PCR-amplified template in 0.1 mg/ml RNA and 0.75 µl of 100 mM oxidized glutathione. […]
(§1) The PCR amplification products are analysed by 1% agarose gel electrophoresis in TAE in the presence of ethidium bromide and imaged using GeneGeius Bio Imaging System (Syngene). […]

[3] = molecular target: Vk(E5)-scArc-HA (Phage P22 / human Vk); experiment: co-capture PCR; recovered also on beta-galactosidase; conditions: tags: N-terminal Vk(E5) dAb fusion, C-terminal HA; chain copies: 2 scArc per operator (stated)
Procedure: The monoclonal high-affinity α-HA mAb 3F10 recognises the C-terminal HA tag, β-galactosidase and protein L can be expected to interact with the $V_\kappa$(E5) light chain domain, while BSA serves as the negative control. At the end of the incubation the coating solution is removed and the first blocking solution consisting of 150 µl of 10 ng/ml biotinylated BSA (Sigma) in PBS is added to the wells and incubated for 15 minutes. At the end of the incubation the wells are washed three times with 150 µl of PBS and blocked additionally for 30 min at room temperature with buffer C+.
25 µl S30 in vitro translation reactions (EcoPro T7, Novagen) are assembled according to the manufacturer's instructions and supplemented with 1.5 µl of 1.7 mM PCR-amplified template in 0.1 mg/ml RNA and 0.75 µl of 100 mM oxidized glutathione. Translation reactions are incubated at 23° C. for 4 hours and diluted with 150 µl of buffer C+ (10 mM Tris, 100 mM KCl, 0.05% Tween 20, 5 mM MgCl_2, 0.1 mM EDTA, 1% w/v BSA) before being applied in 50 µl aliquots to the pre-coated tubes cut from Strep Thermofast 96-well plates (Advanced Biotech) and allowed to bind for 30 min at room temperature. […]
as §1

Measured: binding result

B1: Arc operator, one copy, on linear genetic element (dsDNA)
DNA 1: ATGATAGAAGCACTCTACTAT
DNA 2: ATAGTAGAGTGCTTCTATCAT
binds: all assays above
